Tested on: MTO-sgC tumors
Assay: Subcutaneous MTO-sgC control tumors in syngeneic C57BL/6J mice treated with PEGPH20
Format: in vivo, mouse
Conditions: PEGPH20 0.0375 mg/Kg twice a week, 3 weeks
Description: FIGS. 8F-8J illustrate subcutaneous injection of sgPrkci/Prkcz and sgC MTOs in WT mice. Mice were treated twice a week with Veh or PEGPH20 0.0375 mg/kg for 3 weeks (MTOs: sgC n=10, sgC PEGPH20-treated n=10, sgPrkci/Prkcz n=10, and sgPrkci/Prkcz PEGPH20-treated n=8). Experimental design (F); Immunohistochemistry (IHC) for HA, Masson's trichrome, and αSMA (G) staining quantification (H); tumor volume (I) and tumor weight (J). Scale bars, 100 μm.
For colonoscopy-guided orthotopic injection in the colon submucosa using mouse tumor organoids (MTOs), a 10 μl organoid suspension of equivalent to 40-50 MTOs admixed with 10% Matrigel (Corning) was directly injected into the colonic submucosa of 7 weeks old C57BL/6 mice. 4 weeks after implantation, tumors were collected and analyzed histologically. Orthotopic tumor sizes were measured by caliper after mice were sacrificed. For xenografts using MTOs, a 100 μl cell suspension of equivalent to 0.5×10^6 cells of sgPrkci/Prkcz or sgC MTOs admixed with 30% Matrigel (Corning) was directly injected subcutaneously into the right flank of 7 weeks old C57BL/6 mice. […] Tumors were measured twice a week. Mice were euthanized three weeks after treatment and tumors were analyzed histologically. […]

B1: PEGPH20: a PEGylated version of human recombinant PH20 hyaluronidase; clinical-grade pegylated hyaluronidase (Halozyme Therapeutics) (protein, UniProt P38567 36-490, looked up)
Hyaluronidase PH-20: LNFRAPPVIPNVPFLWAWNAPSEFCLGKFDEPLDMSLFSFIGSPRINATGQGVTIFYVDRLGYYPYIDSITGVTVNGGIPQKISLQDHLDKAKKDITFYMPVDNLGMAVIDWEEWRPTWARNWKPKDVYKNRSIELVQQQNVQLSLTEATEKAKQEFEKAGKDFLVETIKLGKLLRPNHLWGYYLFPDCYNHHYKKPGYNGSCFNVEIKRNDDLSWLWNESTALYPSIYLNTQQSPVAATLYVRNRVREAIRVSKIPDAKSPLPVFAYTRIVFTDQVLKFLSQDELVYTFGETVALGASGIVIWGTLSIMRSMKSCLLLDNYMETILNPYIINVTLAAKMCSQVLCQEQGVCIRKNWNSSDYLHLNPDNFAIQLEKGGKFTVRGKPTLEDLEQFSEKFYCSCYSTLSCKEKADVKDTDAVDVCIADGVCIDAFLKPPMETEEPQIFYNASPSTLS
modifications: PEGylated
growth properties of MTO-sgC tumors: did not affect

From patent US20240377400A1, “METHODS FOR TREATING A SUBTYPE OF COLORECTAL CANCER” (Cornell University, priority 2021, published 2024)
